Substitutions are numbered along the chain they refer to. Names may count otherwise.
Legend:
[1] = molecular target: rHuman IGF-1 sR, (IGF-1 sR), CF (R&D Systems Cat#391-GR) (human) (UniProt P08069); experiment: MSD Multispot ECL, antigen spotted on plate, Fab at 30 nM; blank spot 213
[2] = molecular target: rHuman ErbB2/Fc Chimera, CF (R&D Systems Cat#1129-ER) (human) (UniProt P04626); experiment: as above
[3] = molecular target: rHuman HGF R/c-MET/Fc Chimera, CF (R&D Systems Cat#358-MT/CF) (human) (UniProt P08581); experiment: as above
[4] = molecular target: rHuman EGF R/Fc Chimera, CF (R&D Systems Cat#344-ER) (human) (UniProt P00533); experiment: as above
[5] = molecular target: rHuman IGF-1 sR, (IGF-1 sR), CF (R&D Systems Cat#391-GR) (human) (UniProt P08069); experiment: MSD Multispot ECL, antigen spotted on plate, Fab at 7.5 nM; blank spot 217
[6] = molecular target: rHuman ErbB2/Fc Chimera, CF (R&D Systems Cat#1129-ER) (human) (UniProt P04626); experiment: as above
[7] = molecular target: rHuman HGF R/c-MET/Fc Chimera, CF (R&D Systems Cat#358-MT/CF) (human) (UniProt P08581); experiment: as above
[8] = molecular target: rHuman EGF R/Fc Chimera, CF (R&D Systems Cat#344-ER) (human) (UniProt P00533); experiment: as above
[9] = molecular target: rHuman IGF-1 sR, (IGF-1 sR), CF (R&D Systems Cat#391-GR) (human) (UniProt P08069); experiment: MSD Multispot ECL, antigen spotted on plate, Fab at 60 nM; blank spot 237
[10] = molecular target: rHuman ErbB2/Fc Chimera, CF (R&D Systems Cat#1129-ER) (human) (UniProt P04626); experiment: as above
[11] = molecular target: rHuman HGF R/c-MET/Fc Chimera, CF (R&D Systems Cat#358-MT/CF) (human) (UniProt P08581); experiment: as above
[12] = molecular target: rHuman EGF R/Fc Chimera, CF (R&D Systems Cat#344-ER) (human) (UniProt P00533); experiment: as above
[13] = molecular target: rHuman IGF-1 sR, (IGF-1 sR), CF (R&D Systems Cat#391-GR) (human) (UniProt P08069); experiment: MSD Multispot ECL, antigen spotted on plate, Fab at 240 nM; blank spot 316
[14] = molecular target: rHuman ErbB2/Fc Chimera, CF (R&D Systems Cat#1129-ER) (human) (UniProt P04626); experiment: as above
[15] = molecular target: rHuman HGF R/c-MET/Fc Chimera, CF (R&D Systems Cat#358-MT/CF) (human) (UniProt P08581); experiment: as above
[16] = molecular target: rHuman EGF R/Fc Chimera, CF (R&D Systems Cat#344-ER) (human) (UniProt P00533); experiment: as above
[17] = molecular target: rHuman IGF-1 sR, (IGF-1 sR), CF (R&D Systems Cat#391-GR) (human) (UniProt P08069); experiment: MSD Multispot ECL, antigen spotted on plate, Fab at 120 nM; blank spot 363
[18] = molecular target: rHuman ErbB2/Fc Chimera, CF (R&D Systems Cat#1129-ER) (human) (UniProt P04626); experiment: as above
[19] = molecular target: rHuman HGF R/c-MET/Fc Chimera, CF (R&D Systems Cat#358-MT/CF) (human) (UniProt P08581); experiment: as above
[20] = molecular target: rHuman EGF R/Fc Chimera, CF (R&D Systems Cat#344-ER) (human) (UniProt P00533); experiment: as above
[21] = molecular target: rHuman IGF-1 sR, (IGF-1 sR), CF (R&D Systems Cat#391-GR) (human) (UniProt P08069); experiment: MSD Multispot ECL, antigen spotted on plate, Fab at 3.8 nM; blank spot 198
[22] = molecular target: rHuman ErbB2/Fc Chimera, CF (R&D Systems Cat#1129-ER) (human) (UniProt P04626); experiment: as above
[23] = molecular target: rHuman HGF R/c-MET/Fc Chimera, CF (R&D Systems Cat#358-MT/CF) (human) (UniProt P08581); experiment: as above
[24] = molecular target: rHuman EGF R/Fc Chimera, CF (R&D Systems Cat#344-ER) (human) (UniProt P00533); experiment: as above
[25] = molecular target: rHuman IGF-1 sR, (IGF-1 sR), CF (R&D Systems Cat#391-GR) (human) (UniProt P08069); experiment: MSD Multispot ECL, antigen spotted on plate, Fab at 480 nM; blank spot 362
[26] = molecular target: rHuman ErbB2/Fc Chimera, CF (R&D Systems Cat#1129-ER) (human) (UniProt P04626); experiment: as above
[27] = molecular target: rHuman HGF R/c-MET/Fc Chimera, CF (R&D Systems Cat#358-MT/CF) (human) (UniProt P08581); experiment: as above
[28] = molecular target: rHuman EGF R/Fc Chimera, CF (R&D Systems Cat#344-ER) (human) (UniProt P00533); experiment: as above
[29] = molecular target: rHuman IGF-1 sR, (IGF-1 sR), CF (R&D Systems Cat#391-GR) (human) (UniProt P08069); experiment: MSD Multispot ECL, antigen spotted on plate, Fab at 15 nM; blank spot 261
[30] = molecular target: rHuman ErbB2/Fc Chimera, CF (R&D Systems Cat#1129-ER) (human) (UniProt P04626); experiment: as above
[31] = molecular target: rHuman HGF R/c-MET/Fc Chimera, CF (R&D Systems Cat#358-MT/CF) (human) (UniProt P08581); experiment: as above
[32] = molecular target: rHuman EGF R/Fc Chimera, CF (R&D Systems Cat#344-ER) (human) (UniProt P00533); experiment: as above
[33] = molecular target: rHuman ErbB2/Fc Chimera (human) (UniProt P04626); experiment: ECL (MSD) multispot assay, antigen spotted; blank spot of this row 236
[34] = molecular target: rHuman ErbB2/Fc Chimera (human) (UniProt P04626); experiment: ECL (MSD) multispot assay, antigen spotted; blank spot of this row 223
[35] = molecular target: rHuman ErbB2/Fc Chimera, CF (R&D Systems Cat#1129-ER) (human) (UniProt P04626); experiment: ECL multispot (MSD) binding assay, antigen spotted on plate, Fab 0.04 uM
[36] = molecular target: rHuman EGF R/Fc Chimera, CF (R&D Systems Cat#344-ER) (human) (UniProt P00533); experiment: as above
[37] = molecular target: Recombinant Human DLL4 (R&D Systems Cat#1506-D4/CF) (human) (UniProt Q9NR61); experiment: ELISA, DLL4 coated on plate, Fab at […] (cells of this row shifted one column left)
[38] = molecular target: rHuman EGF R/Fc Chimera, CF (R&D Systems Cat#344-ER) (human) (UniProt P00533); experiment: Multispot ECL (MSD) titration; antigen spotted on plate; Fab 392.5 nM; blank spot 338
[39] = molecular target: rHuman EGF R/Fc Chimera, CF (R&D Systems Cat#344-ER) (human) (UniProt P00533); experiment: Multispot ECL (MSD) titration; antigen spotted on plate; Fab 98.1 nM; blank spot 210
[40] = molecular target: rHuman EGF R/Fc Chimera, CF (R&D Systems Cat#344-ER) (human) (UniProt P00533); experiment: Multispot ECL (MSD) titration; antigen spotted on plate; Fab […]; blank spot 149
[41] = molecular target: rHuman EGF R/Fc Chimera, CF (R&D Systems Cat#344-ER) (human) (UniProt P00533); experiment: Multispot ECL (MSD) titration; antigen spotted on plate; Fab 1570 nM; blank spot 866

Sequence of rHuman HGF R/c-MET/Fc Chimera, CF (R&D Systems Cat#358-MT/CF) (human) (P08581 25-932, change not shown): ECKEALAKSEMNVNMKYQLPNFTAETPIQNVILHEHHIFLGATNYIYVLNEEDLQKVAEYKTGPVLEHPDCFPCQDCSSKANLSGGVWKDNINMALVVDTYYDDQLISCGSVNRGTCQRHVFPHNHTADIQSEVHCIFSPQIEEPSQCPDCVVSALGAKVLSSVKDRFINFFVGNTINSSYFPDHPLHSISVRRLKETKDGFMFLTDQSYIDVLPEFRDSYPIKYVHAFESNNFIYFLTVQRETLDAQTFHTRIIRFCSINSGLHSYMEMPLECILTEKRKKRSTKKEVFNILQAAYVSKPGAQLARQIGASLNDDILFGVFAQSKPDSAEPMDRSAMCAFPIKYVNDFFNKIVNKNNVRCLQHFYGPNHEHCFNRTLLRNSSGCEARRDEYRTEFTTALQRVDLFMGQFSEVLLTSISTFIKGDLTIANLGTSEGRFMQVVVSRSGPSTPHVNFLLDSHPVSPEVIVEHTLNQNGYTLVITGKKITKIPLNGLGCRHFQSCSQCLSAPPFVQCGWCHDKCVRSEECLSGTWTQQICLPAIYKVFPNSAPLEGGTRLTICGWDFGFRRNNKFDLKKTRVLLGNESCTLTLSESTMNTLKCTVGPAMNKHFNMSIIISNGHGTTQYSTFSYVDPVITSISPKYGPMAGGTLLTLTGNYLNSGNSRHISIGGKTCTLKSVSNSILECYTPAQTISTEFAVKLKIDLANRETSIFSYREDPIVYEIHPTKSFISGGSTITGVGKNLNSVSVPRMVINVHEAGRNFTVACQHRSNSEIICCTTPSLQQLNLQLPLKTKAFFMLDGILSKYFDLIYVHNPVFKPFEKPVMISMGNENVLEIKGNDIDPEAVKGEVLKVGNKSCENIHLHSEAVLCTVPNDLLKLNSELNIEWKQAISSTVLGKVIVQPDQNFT

B1: Fab VH6-1_IGHD3-3*01_IGHJ4*01 & V4-3_IGLJ4*01 (Fab, V domains shown)
VH: QVQLQQSGPGLVKPSQTLSLTCAISGDSVSSNSAAWNWIRQSPSRGLEWLGRTYYRSKWYNDYAVSVKSRITINPDTSKNQFSLQLNSVTPEDTAVYYCAREYYDFWSGYYTDYFDYWGQGTLVTVSS
VL: QPVLTQPTSLSASPGASARLTCTLRSGINLGSYRIFWYQQKPESPPRYLLSYYSDSSKHQGSGVPSRFSGSKDASSNAGILVISGLQSEDEADYYCMIWHSSASFVFGGGTQLIIL
ECL signal [1]: 697 | ECL signal [2]: 726 | ECL signal [3]: 640 | ECL signal [4]: 585 | ECL signal [5]: 642 | ECL signal [6]: 695 | ECL signal [7]: 558 | ECL signal [8]: 582 | ECL signal [9]: 654 | ECL signal [10]: 777 | ECL signal [11]: 623 | ECL signal [12]: 679 | ECL signal [13]: 625 | ECL signal [14]: 833 | ECL signal [15]: 834 | ECL signal [16]: 690 | ECL signal [17]: 813 | ECL signal [18]: 822 | ECL signal [19]: 785 | ECL signal [20]: 658 | ECL signal [21]: 463 | ECL signal [22]: 714 | ECL signal [23]: 519 | ECL signal [24]: 511 | ECL signal [25]: 741 | ECL signal [26]: 965 | ECL signal [27]: 951 | ECL signal [28]: 877 | ECL signal [29]: 705 | ECL signal [30]: 713 | ECL signal [31]: 694 | ECL signal [32]: 584

B2: Fab VH5-51_IGHD5-18*01>3_IGHJ4*01 G100K/G104T S84V & V3-4_IGLJ1*01 (Fab, V domains shown)
VH: EVQLVQSGAEVKKPGESLKISCKGSGYSFTSYWIGWVRQMPGKGLEWMGIIYPGDSDTRYSPSFQGQVTISADKSISTAYLQWVSLKASDTAMYYCARRKYSYTYDYFDYWGQGTLVTVSS
VL: QTVVTQEPSFSVSPGGTVTLTCGLSSGSVSTSYYPSWYQQTPGQAPRTLIYSTNTRSSGVPDRFSGSILGNKAALTITGAQADDESDYYCVLYMGSGISYVFGTGTKVTVL
ECL signal [33]: 1040

B3: Fab VH5-51_IGHD5-18*01>3_IGHJ4*01 G100K/G104T S84L & V3-4_IGLJ1*01 (Fab, V domains shown)
VH: B2 VH with V84L
VL: B2 VL
ECL signal [34]: 1090

B4: Fab VH5-51_IGHD5-18*01>3_IGHJ4*01 G100K/G104T (H:KT) & V3-4_IGLJ1*01 G97A (Fab, V domains shown)
VH: B2 VH with V84S
VL: B2 VL with G97A
ECL signal [35]: 1290 | ECL signal [36]: 1060

B5: Fab VH5-51_IGHD5-18*01>3_IGHJ4*01 G100K/G104T S28R (H:KT S28R) & V3-4_IGLJ1*01 M94R/S96M (L:RM) (Fab, V domains shown)
VH: B2 VH with S28R, V84S
VL: B2 VL with M94R, S96M
ELISA signal [37]: 0.001

B6: Fab VH1-46_IGHD3-10*01_IGHJ4*01 & O1_IGKJ1*01 (Fab, V domains shown)
VH: QVQLVQSGAEVKKPGASVKVSCKASGYTFTSYYMHWVRQAPGQGLEWMGIINPSGGSTSYAQKFQGRVTMTRDTSTSTVYMELSSLRSEDTAVYYCAREYYYGSGSYYNDYFDYWGQGTLVTVSS
VL: DIVMTQTPLSLPVTPGEPASISCRSSQSLLDSDDGNTYLDWYLQKPGQSPQLLIYTLSYRASGVPDRFSGSGSGTDFTLKISRVEAEDVGVYYCMQRIEFPSWTFGQGTKVEIKR
ECL signal [38]: 744 | ECL signal [39]: 4390 | ECL signal [40]: 317 | ECL signal [41]: 2480

From patent publication US20120316071A1
